Changes are numbered by the printed parent chain. One block for each binder: values may come before it.
What was measured:
[1] = molecular target: OX40 expressed on Jurkat cells (NF-kB luciferase reporter line) (UniProt P43489); experiment: cell-based or functional assay
[2] = molecular target: anti-OX40 clone 3C8, iAbaff2 IgG; experiment: SEC-MALS at 1.9 mg/ml, self-association
[3] = molecular target: anti-OX40 clone 3C8, iAbaff2 IgG; experiment: SEC-MALS at 0.38 mg/ml, self-association
[4] = molecular target: anti-OX40 clone 3C8, iAbaff2 IgG; experiment: SEC-MALS at 4.9 mg/ml, self-association
[5] = molecular target: anti-OX40 clone 3C8, iAbaff2 IgG; experiment: SEC-MALS, self-association

Sequence of UniProt P43489 (P43489 29-277 limits assumed): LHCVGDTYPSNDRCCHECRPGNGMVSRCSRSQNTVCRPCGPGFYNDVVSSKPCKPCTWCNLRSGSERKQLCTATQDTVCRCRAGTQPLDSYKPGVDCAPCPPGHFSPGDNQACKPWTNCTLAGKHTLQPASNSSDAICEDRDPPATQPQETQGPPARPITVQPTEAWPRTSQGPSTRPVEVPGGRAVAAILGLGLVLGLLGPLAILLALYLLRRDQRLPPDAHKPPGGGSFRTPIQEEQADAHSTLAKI

- EC50 of OX40 agonist activity (Jurkat OX40 NF-kB luciferase reporter), fold against iAb IgG [1]: 100 fold
- maximal OX40 agonist activity (Jurkat OX40 NF-kB luciferase reporter), fold against iAb IgG [1]: 2 fold
B1: anti-OX40 clone 3C8, iAbaff1 monomeric Fab (Fab, part only; not given: Light chain, CH1 and tag, not shown: small tags and cut ends)
heavy, part: EVQLVQSGAEVKKPGATVVVLCKASGYAFTNYLIEWVRQAPGQGLEWIGVINPGSGDTYYSEKFKGRVTLFADTSTSQAILILTSLRSEDTAVYYCARDRLDYWGQGTLVTVSS

- SEC-MALS Molecular Weight (Da) [2]: 225000 Da
- SEC-MALS Molecular Weight (Da) [3]: 204000 Da
- SEC-MALS Molecular Weight (Da) [4]: 244000 Da
- SEC-MALS Molecular Weight (Da) [5]: 227000 Da
B2: anti-OX40 clone 3C8, iAbaff2 IgG (antibody, part only; not given: Light chain, V domains shown, part only)
VH: B1 heavy, part with T17S, V19I, L21S, T69F, Q78T, I80Y, I82V, T84S
